From patent US20230313187A1, “MODIFICATIONS OF MAMMALIAN CELLS USING ARTIFICIAL MICRO-RNA TO ALTER THEIR PROPERTIES AND THE COMPOSITIONS OF THEIR PRODUCTS” (DNA TWOPOINTO INC., priority 2020, published 2023) come the findings set out here.

Data set [1] relates to Cricetulus griseus alpha-(1,6)-fucosyl transferase (FUT8) mRNA. Nature of the data set: Antibody titer and fucosylation with different numbers of amiRNA hairpins in the 3' UTR of the glutamine synthetase selectable marker. Particulars: for antibody titer: weaker (PGK) promoter operably linked to glutamine synthetase, amiRNA in 3' UTR; for antibody fucosylation: weaker (PGK) promoter, amiRNA in GS 3' UTR, natural level around 80-85%. The data set is classed as cell-based. From the text: One- two- or three-hairpin amiRNAs were incorporated into the 3′ UTR of a glutamine synthetase selectable marker on a transposon. The multi-hairpin amiRNA with nucleotide sequence SEQ ID NO: 194 comprised three hairpins as described in Section 6.1.1.1.
These amiRNA sequences were placed to the 3′ of an open reading frame encoding a glutamine synthetase protein (with polypeptide sequence SEQ ID NO: 307) and followed by a human globin polyadenylation sequence. The amiRNA genes were cloned into a transposon vector in which they were operably linked to a Pol II promoter. The transposon further comprised genes encoding an antibody with mature light chain polypeptide sequence SEQ ID NO: 286 and mature heavy chain polypeptide sequence SEQ ID NO: 288. The transposon further comprised a left end comprising a 5′-TTAA-3′ target sequence immediately followed by an ITR with nucleotide sequence SEQ ID NO: 423 (which is an embodiment of SEQ ID NO: 421) and additional nucleotide sequence SEQ ID NO: 417 and a right end comprising nucleotide sequence SEQ ID NO: 419 immediately followed by an ITR with nucleotide sequence SEQ ID NO: 424 (which is an embodiment of SEQ ID NO: 422) immediately followed by a 5′-TTAA-3′ target sequence. The transposon was configured so that the multi-hairpin amiRNA, the glutamine synthetase gene and the genes for both antibody chains, as well as all necessary operably linked control elements were transposable by a corresponding transposase.
Transposons were co-transfected with mRNA encoding transposase with polypeptide sequence SEQ ID NO: 472 into a CHO cell line with no functional glutamine synthetase gene. The pool of transfected cells were grown in the absence of glutamine added to the media until their viability reached 95%. They were then grown in a 14 day fed-batch using Sigma Advanced Fed Batch media. Protein was purified from the culture supernatant using protein A affinity chromatography, reduced with dithiothreitol, and analyzed on an Agilent QTOF mass spectrometer. We integrated the area under the peaks at 50,456 Da (corresponding to the heavy chain modified by G0: the conserved heptasaccharide core composed of 2 N-acetylglucosamine, 3 mannose and 2 other N-acetylglucosamine residues that are β-1,2 linked to α-6 mannose and α-3 mannose, forming two arms) and 50,602 (corresponding to the heavy chain modified by G0F: the conserved heptasaccharide core plus a fucose residue) to calculate the relative proportion of fucosylated and afucosylated antibody.
Table 5. Inhibition of antibody fucosylation with different numbers of amiRNA hairpins. Transposons were constructed as described in Section 6.1.2.1. The SEQ ID NO of the amiRNA gene including the glutamine synthetase ORF and the globin polyA sequence is given in column A. The Pol II promoter shown in column B was operably linked to the amiRNA whose SEQ ID NO is shown in column C. The amiRNA comprised the number of hairpins shown in column D. Following a 14-day fed batch antibody production run, the culture supernatant contained the concentration of antibody shown in column E. The percentage of antibody that was afucosylated is shown in column F, the percentage that was fucosylated is shown in column G. BDL=below detection limit.

Data set [2] deals with Cricetulus griseus glutamine synthetase mRNA. Nature of the data set: Growth of CHO cell pools with amiRNA targeted toward glutamine synthetase in the absence of glutamine. The class given is cell-based. The note with it: for VCD: glutamine-free media. From the text:
The multi-hairpin amiRNA was cloned into a piggyBac-like transposon to the 3′ of a spacer polynucleotide with nucleotide sequence SEQ ID NO: 280, and operably linked to a PGK promoter with nucleotide sequence SEQ ID NO: 386. The nucleotide sequence of the multi-hairpin amiRNA gene is given as SEQ ID NO: 540. The piggyBac-like transposon further comprised a selectable marker conferring resistance to G418/neomycin with amino acid sequence SEQ ID NO: 296. The piggyBac-like transposon further comprised a target sequence 5′-TTAA-3′ immediately followed by an ITR with nucleotide sequence SEQ ID NO: 448 (which is an embodiment of SEQ ID NO: 564), immediately followed by further transposon end sequences with nucleotide sequence SEQ ID NO: 445. The piggyBac-like transposon further comprised nucleotide sequence SEQ ID NO: 446, immediately followed by a second ITR with nucleotide sequence SEQ ID NO: 449 (which is an embodiment of SEQ ID NO: 447), immediately followed by the target sequence 5′-TTAA-3′. The transposon was configured so that the multi-hairpin amiRNA, the spacer polynucleotide and the gene encoding the selectable marker, as well as all necessary operably linked control elements, were transposable by a corresponding transposase. The full sequence of the transposon comprising the multi-hairpin amiRNA gene and selectable marker is given as SEQ ID NO: 544.
The transposon was co-transfected with mRNA encoding transposase with polypeptide sequence SEQ ID NO: 523 into a CHO cell line with intact glutamine synthetase genes. The pool of transfected cells were grown in the presence of 600 or 1,000 μg/ml G418 plus 5 mM glutamine until their viability reached 95%.
After the transfected cell pools had recovered to >95% viability, we tested their ability to grow in the absence of glutamine. Cells were transferred to Sigma Advanced Fed Batch media lacking glutamine to an initial a density of 0.3×10^6 live cells/ml. The viable cell density was measured at various times after the removal of glutamine. On the fourth day, cells were diluted back to a density of 0.3×10^6 live cells/ml in media lacking glutamine, to ensure that growing cells had sufficient nutrients. […] After this, the viable cell density approximately tripled between dilution on day 4 and day 6 and doubled again between day 6 and day 8. […] The viable cell density then began to fall for both pools transfected with a transposon comprising the multi-hairpin amiRNA with nucleotide sequence SEQ ID NO: 209 at day 6 (Table 7 columns B and C, compare rows 6, 7 and 8). By day 8 the viable cell density had fallen precipitously to less than 0.02×10^6 live cells/ml. There was no difference between the growth of cells transfected with the control transposon or the transposon comprising the multi-hairpin amiRNA with nucleotide sequence SEQ ID NO: 209 in the presence of glutamine: all pools grew well. We conclude that a multi-hairpin amiRNA comprising guide strand sequences complementary to three different sequences within the CHO glutamine synthetase mRNA target (nucleotide sequence SEQ ID NO: 10) can be used to make a CHO cell dependent upon exogenously provided glutamine. The cells in this pool had been selected with neomycin/G418, which allowed growth of cells whose genomes comprised the transposon comprising the multi-hairpin amiRNA. […] By using the multi-hairpin amiRNA gene we were able to produce a pool of cells in which expression of the essential metabolic enzyme glutamine synthetase was inhibited to a level that prevents growth of the cell in greater than 93% of the cells in the pool.
The multi-hairpin amiRNA with nucleotide sequence SEQ ID NO: 209 was also cloned into three other piggyBac-like transposons, also to the 3′ of a spacer polynucleotide with nucleotide sequence SEQ ID NO: 280. In the first transposon the multi-hairpin amiRNA was operably linked to a PGK promoter with nucleotide sequence SEQ ID NO: 385. […]

B1: SEQ ID NO: 196: two-hairpin amiRNA, guides SEQ ID NOs 23 and 24 complementary to Cricetulus griseus FUT8 mRNA (nucleic acid)
chain: ATCTGATCTTCTGAAGAAAATATATTTCTTTTTATTCATAGCTCTTAACTAGTGGTGATAGCAATGTCAGCAGTGCCTGGAAAAACATCCATTCTCATTCGTGAAGCCACAGATGGAATGAGAATAGATGTTTTTCAAAGTAAGGTTGACCATACTCTACTCTAGTTATATTCTTTAGGCACGAATGTGTGTTTAAAAAAAATAAAAACTAGTGGTGATAGCAATGTCAGCAGTGCCTTTAAATTACATAATGTGGCAGTGTGAAGCCACAGATGACTGCCACATCATGTAATTTACAAGTAAGGTTGACCATACTCTACTCTAGAGTTGTGTTTTAATGTATATTAATGTTACTAATGTGTTTTCAGTTTTATTGATAGTCTTTTCAGTATTATTGATAATCTT
In data set [1], B1 gave an antibody titer of 770 mg/L and an antibody fucosylation of 10%.

B2: SEQ ID NO: 209: three-hairpin amiRNA, guides SEQ ID NOs 53, 54, 55 complementary to Cricetulus griseus glutamine synthetase mRNA (nucleic acid)
chain: ATCTGATCTTCTGAAGAAAATATATTTCTTTTTATTCATAGCTCTTAACTAGTGGTGATAGCAATGTCAGCAGTGCCTTTGAGTTACAATGAGACAGCTGGTGAAGCCACAGATGCAGCTGTCTCCTTGTAACTCACAAGTAAGGTTGACCATACTCTACTCTAGAGTTGTGTTTTAATGTATATTAATGTTACTAATGTGTTTACTAGTGGTGATAGCAATGTCAGCAGTGCCTTATTCTGACCAATAAAAGCAAGGTGAAGCCACAGATGCTTGCTTTTACTGGTCAGAATCAAGTAAGGTTGACCATACTCTACTCTAGGTTATTTTTAGTATGATTCTGTAAAAATGAATTAATACTAACTAGTGGTGATAGCAATGTCAGCAGTGCCTTTTTACCTGAAGAACTAGCAGCGTGAAGCCACAGATGGCTGCTAGTTATTCAGGTAAACAAGTAAGGTTGACCATACTCTACTCTAGTCAGTTTTATTGATAGTCTTTTCAGTATTATTGATAATCTT
As for B2, the “cells in the pool in which glutamine synthetase is inhibited to a level that prevents growth” value in data set [2] (G418-selected pool) is recorded as “greater than 93%”. In data set [2] (amiRNA operably linked to a promoter and integrated into the CHO genome, also PGK, EF1, EEF2 promoters in other transposons, listed as 209), the “dependence on exogenously supplied glutamine” value was “completely dependent upon exogenously supplied glutamine”. Also, the “increase in viable cell density” value in data set [2] (between day 1 and day 4 without glutamine, pool selected with 600 μg/ml G418) is recorded as “less than 50%”; in data set [2] (to day 4 without glutamine, pool selected with 1,000 μg/ml G418) it was “failed to increase their viable cell density at all”. In addition, the cells still alive entry in data set [2] (by day 8 without glutamine) is “less than 7%”. For the same molecule, the viable cell density entry in data set [2] (by day 8 without glutamine, both pools) is given as “less than 0.02 ×10^6 live cells/ml”. The VCD in data set [2] (600 ug/ml G418 pool, day 1) is 0.45 x 10^6 live cells/ml; in data set [2] (600 ug/ml G418 pool, day 4 after dilution), 0.30 x 10^6 live cells/ml; in data set [2] (600 ug/ml G418 pool, day 4 before dilution) it was 0.47 x 10^6 live cells/ml; in data set [2] (600 ug/ml G418 pool, day 6), 0.21 x 10^6 live cells/ml; in data set [2] (600 ug/ml G418 pool, day 8), 0.01 x 10^6 live cells/ml; in data set [2] (1000 ug/ml G418 pool, day 1) it was 0.31 x 10^6 live cells/ml. In addition, the VCD was 0.30 x 10^6 live cells/ml in data set [2] (1000 ug/ml G418 pool, day 4 after dilution); 0.30 x 10^6 live cells/ml in data set [2] (1000 ug/ml G418 pool, day 4 before dilution); 0.26 x 10^6 live cells/ml in data set [2] (1000 ug/ml G418 pool, day 6); 0.02 x 10^6 live cells/ml in data set [2] (1000 ug/ml G418 pool, day 8); 0.30 x 10^6 live cells/ml in data set [2] (pool selected with 600 ug/ml G418, day 0 (inoculation)); 0.30 x 10^6 live cells/ml in data set [2] (pool selected with 1000 ug/ml G418, day 0 (inoculation)).

B3: SEQ ID NO: 197: single hairpin amiRNA, guide SEQ ID NO: 23 complementary to Cricetulus griseus FUT8 mRNA (nucleic acid)
chain: ATCTGATCTTCTGAAGAAAATATATTTCTTTTTATTCATAGCTCTTAACTAGTGGTGATAGCAATGTCAGCAGTGCCTGGAAAAACATCCATTCTCATTCGTGAAGCCACAGATGGAATGAGAATAGATGTTTTTCAAAGTAAGGTTGACCATACTCTACTCTAGAGTTGTGTTTTAATGTATATTAATGTTACTAATGTGTTTTCAGTTTTATTGATAGTCTTTTCAGTATTATTGATAATCTT
As to B3, in data set [1], the antibody titer is given as 514 mg/L and the antibody fucosylation entry is on record as “about 50%”.
